Laboratory results from paper PMC3319784.

Columns and labels:
[1] = biological target: first Sam domain of Odin (Odin-Sam1) (human) (UniProt Q92625); test: ITC
[2] = biological target: Sam domain of the EphA2 receptor (EphA2-Sam), wild type (human) (UniProt P29317); test: SPR

Row | Kd [1] [µM] | stoichiometry N [1] | Kd [2] [µM] | Molecule
1 | 0.62 | 1 | – | Sam domain of the EphA2 receptor (EphA2-Sam), wild type (from UniProt P29317 902-976) (domain or fragment)
2 | – | – | 5.5 | first Sam domain of Odin (Odin-Sam1) (domain or fragment) ISGLRTLEQSVGEWLESIGLQQYESKLLLNGFDDVHFLGSNVMEEQDLRDIGISDPQHRRKLLQAARSLPKVKALGYDGN
